Measurements from patent US20040001822A1, “Y1-isolated molecules comprising epitopes containing sulfated moieties, antibodies to such epitopes, and uses thereof” (priority 2000, published 2004).

B1: Y17 scFv: second scFv clone binding platelets and myelogenous leukemia cell lines, SEQ ID NO: 203 (protein, listed as Homo sapiens)
scFv: MKYLLPTAAAGLLLLAAQPAMAEVQLVESGGGVVRPGGSLRLSCAASGFTFDDYGMSWVRQAPGKGLEWVSGINWNGGSTGYADSVKGRFTISRDNAKNSLYLQMNSLRAEDTAVYYCARLTHPYFWGQGTLVTVSRGGGGSGGGGSGGGGSSELTQDPAVSVALGQTVRITCQGDSLRSYYASWYQQKPGQAPVLVIYGKNNRPSGIPDRFSGSSSGNTASLTITGAQAEDEADYYCNSRDSSGNHVVFGGGTKLTVLGAAAEQKLISEEDLNGAA
B2: CONY1: scFv derived from Y1 scFv with the myc tag replaced by lysine, alanine, lysine (KAK), SEQ ID NO: 204 (protein, listed as Homo sapiens)
scFv: MKYLLPTAAAGLLLLAAQPAMAEVQLVESGGGVVRPGGSLRLSCAASGFTFDDYGMSWVRQAPGKGLEWVSGINWNGGSTGYADSVKGRFTISRDNAKNSLYLQMNSLRAEDTAVYYCARMRAPVIWGQGTLVTVSRGGGGSGGGGSGGGGSSELTQDPAVSVALGQTVRITCQGDSLRSYYASWYQQKPGQAPVLVIYGKNNRPSGIPDRFSGSSSGNTASLTITGAQAEDEADYYCNSRDSSGNHVVFGGGTKLTVLGAAAKAK

What was measured:
washed platelets = assay: Ristocetin-induced agglutination of washed platelets after preincubation with scFv; type: cell-based, human
Description: Aggregation is determined in PRP due to the presence of thrombotic agents, while agglutination is determined in washed platelets. The effect of Y1 (scFv) on agglutination of washed platelets was tested at various concentrations of Y1. Platelets were pre-incubated with Y1 scFv, Y17 scFv, Y16-scFv, or a control TM-1 scFv for 4 min at 37° C. before being exposed to ristocetin, an inducer of platelet agglutination and aggregation.
Platelet concentrate in acid-citrate-dextrose (ACD) was obtained from a blood bank, platelets were isolated, washed once in buffer containing ACD and saline in a ratio of 1:7. The platelets were centrifuged at 800 g for 10 min after each wash and were resuspended in Tyrodes solution (2 mM MgCl2, 137 mM NaCl, 2.68 mM KCl, 3 mM NaH2PO4, 0.1% glucose, 5 mM Hepes and 0.35% albumin, pH 7.35) and count the number of cells.
(§1) For platelet aggregation studies, platelet rich plasma (PRP) and washed platelets were stirred at 500 rpm at 37° C. in whole blood Lumiaggregometer (Chronolog, Havertown,Pa.). The difference in light transmission through the platelet suspension and suspending medium was taken as 100% aggregation. The effect of Y1 on platelet aggregation was evaluated by addition of different concentration of Y1 before the addition of agonist, and the effect was recorded for four minutes.
The effect of Y17-scFv on vWF-dependent agglutination of platelets was tested at different concentrations of Y17.

[1] = system: platelet-rich-plasma (PRP); assay: Ristocetin-induced aggregation of platelet-rich plasma after preincubation with scFv; type: cell-based, human; conditions: scFv 38 μg/ml
Description: The effect of Y1 (scfv) on aggregation of platelet-rich-plasma (PRP) was tested at various concentrations of Y1. PRP was pre-incubated with Y1 scfv, Y17 scfv, or a control sTM-1cFv for 4 min at 37° C. before being exposed to ristocetin, an inducer of platelet agglutination and aggregation. A reversible inhibitory effect was observed when scFv was added to PRP prior to the addition of ristocetin, and it was dose dependent.
Blood was collected into a tube containing 3.8% sodium citrate. Platelet-rich plasma was prepared by centrifugation at 250×g for 10 minutes.
as §1

MOLT-4 cells = assay: T-ALL (MOLT4) model in SCID mice; type: in vivo
Description: The in vivo mouse model for T-ALL uses SCID mice (Jackson Laboratories) injected with MOLT4 cells derived from a T cell leukemia patient.
In one experiment, SCID mice were pretreated with 100 mg/kg Cytoxan (CTX, Cycloposphamid for injection, Mead Johnson). Eleven days after CTX injection, MOLT-4 cell were injected intravenously into the tail vein. Control mice were injected with PBS alone. One week post-MOLT-4 injection mice were injected with CONY1-Doxorubicin, which is a conjugate between scFv CON Y1 polypeptide, having KAK amino acid residues at its carboxy end and doxorubicin via a short organic linker; CONY1, which is a scFv antibody fragment derived from Y1 scFv in which the DNA sequences encoding the myc tag of Y1 were deleted and replaced with a DNA sequence encoding the amino acids lysine, alanine, lysine (KAK); or free Doxorubicin. The mice were injected three times per week for three weeks. […] (Table M).
Mice started to die 32 days post cell inoculation, and the surviving mice were sacrificed at this time. Bone marrow cells were analyzed by flow cytometry using anti-human CD44-FITC and Y1-Biotin/SAV-PE. Blood samples from several animals were monitored for platelet and white blood cell count. Livers were weighted and examined for tumor appearance. Other organs were also examined for tumor appearance.
In a second experiment, SCID mice were i.v. injected with 2×10^7 MOLT-4 cells/mouse, 5 days post treatment with cyclophosphamide. Anti-cancer agents or PBS (negative control animals) were injected i.v. three times/week from day 5 post MOLT-4 cells injection and onward. On day 35, blood was drawn from the animals, the animals were sacrificed, and their livers were excised and weighed. In the untreated, PBS-treated MOLT-4 cell-bearing animals, the liver presented with a very massive tumor growth, and its size was increased 2-3-fold relative to PBS control uninfected animals. In this experiment, there were five treatment groups:
In parallel, portions of liver tissue were taken for histology and cell harvesting for FACS analysis. The survival rate of another group of treated animals was recorded relative to that of control untreated mice.
In a third experiment, using the identical SCID/MOLT-4 protocol, there were 6 groups: […]

KG-1 cells = assay: AML KG-1 model in NOD/SCID mice; type: in vivo
Description: The in vivo mouse model for human AML uses SCID/NOD mice (Jackson Laboratories) inoculated with KG-1 cells derived from a human AML cell line.
In a first experiment, NOD/SCID mice were pretreated with 100 mg/kg CYTOXAN®. Four days post CYTOXAN® injection, KG-1 cells were injected intravenously into the tail vein of six groups of mice. (Table N, Groups 2 and 5-9). One group of mice (Table N, Group 1) was injected with PBS alone (control).
Beginning 19 days post KG-1 injection mice were treated with: CONY1, Doxorubicin, CONY1-Doxorubicin conjugate, or Mylotarg®. (Mylotarg® is a monoclonal antibody (anti CD33) conjugated chemically to calcheamicin recently approved by the FDA for treatment of AML patients age 60 and over in a first relapse.) Mice were treated once or three times per week for three weeks. […]
Mice were sacrificed from 60 to 65 days post cell injection. Bone marrow samples were analyzed by flow cytometry using mouse anti human CD34-FITC (IQP 144F) (or anti CD44-FITC (MCA89F, Serotec)) and Y1-Biotin/SAV-PE. […]
An additional experiment was performed in which SCID-NOD mice were i.v. injected with 3×10^4 MOLT-4 cells/mouse 5 days post treatment with cyclophosphamide. […] Bone marrow was extracted and analyzed by FACS analysis using a commercially available antiCD44 antibody for the detection of MOLT-4 cells in the mice bone marrow cell population.

[2] = Pharmacokinetics of 125I-CONY1 after intravenous injection; type: in vivo, Male Balb-C mice
Description: Two to four mice were used per time point. […] Organ/tissue total and specific radioactivity values were calculated.

[3] = molecular target: T1, GPIb (glycocalicin) derived from platelets (Homo sapiens, UniProt P07359); assay: ELISA to glycocalicin, monomer versus cysteine dimer; type: binding
T1 construct: glycocalicin (soluble, extracellular fragment of GPIbα); from tissue; host or cells: human platelets
Description: An ELISA assay was performed to ascertain the differences in binding between the monomer (the Y1 scFv-also known as Y1-kak) and the dimer Y1-cys-kak (the cysteine dimer) for antigen GPIb (glycocalicin) derived from platelets. A polyclonal anti single chain antibody and/or a novel polyclonal anti-VL (derived from rabbits) and anti-rabbit HRP, were used to detect the binding to GPIb. […] For instance, to reach 0.8 OD units 12.8 μg/ml of monomer was used compared to only 0.1 μg/ml of dimer.
100 ml of purified glycocalicin was incubated in a 96 flat well maxisorp plates, overnight at 4 degrees celsius. The plate was washed with PBST (PBS+0.05% tween) 3 times, then […] of PBST-milk (PBST+2% Non fat milk), for 1 hr at room temperature. The plate was washed with PBST, and the monomer or dimer (100 ml) was added in PBST-milk at different concentrations for 1 hr at room temp. Then the plate was washed and anti-VL polyclonal (derived from immunized rabbits with VL derived from Y1) (1:100 diluted in PBST-milk) was added for an hour. The plate was washed and anti-rabbit HRP was added for an additional hour. The plate was washed 5 times and 100 μl TMB substrate was added for approximately 15 minutes then 100 μl of 0.5 H2SO4 was added to stop the reaction. The optical density of the plate was measured at 450 nm in an ELISA reader.

[4] = scFv 25 μg/ml, ristocetin = 100% agglutination

Row | Molecule | inhibition of vWF-dependent platelet agglutination induced by ristocetin (washed platelets; final concentration of 10, 25 or 50 μg/ml) | % agglutination (washed platelets; [4]) | % inhibition (washed platelets; [4]) | % aggregation [1] | % inhibition ([1]; listed as Y17) | liver weight versus free Doxorubicin or untreated (MOLT-4 cells; first experiment, three times per week for three weeks, sacrifice 32 days post cell inoculation) | survival (MOLT-4 cells; mice which received continued treatment) | liver weights / tumor growth in the liver (MOLT-4 cells; second experiment, day 35, i.v. three times/week, CONY1 and conjugate 75 μg/mouse, Doxorubicin 0.1 mg/kg) | tumor growth (based on liver weights) (MOLT-4 cells; third experiment, CONY1 scFv 75 μg/mouse, Y1-IgG 5 μg/mouse) | prevalence of cancer cells in the bone marrow (KG-1 cells; additional experiment, day 60, CONY1 scFv 75 μg/mouse three times/week, Mylotarg 7 μg/mouse once a week) | percentage of KG-1 cells in bone marrow (KG-1 cells; first experiment, KG-1 cells incubated in vitro with scFv before injection (groups 3 and 4)) | half-life of blood clearance, first compartment ([2]; 15 μg per mouse i.v., plasma TCA precipitable radioactivity, two-compartment model) | half-life of blood clearance, second compartment ([2]; 15 μg per mouse i.v., two-compartment model) | distribution between plasma and erythrocytes ([2]; blood versus plasma radioactivity) | specific uptake in body tissues ([2]; liver, lung, kidney, spleen, bone marrow, 5 minutes to 24 hours) | concentration to reach 0.8 OD units [3]
1 | B1 | did not inhibit | 85% | 15% | 100% | did not inhibit |  |  |  |  |  |  |  |  |  |  | 
2 | B2 |  |  |  |  |  | weighted significantly less | prolonged | markedly inhibited tumor growth in the liver | inhibited tumor growth | had no effect | significantly lower percentage | 0.583 h | 3.17 h | practically all of the CONY-1 resided in the plasma and did not adhere to erythrocytes | no major specific uptake | 12.8 µg/mL
